Results taken from patent US20240391979A1 (ACHELOIS BIOPHARMA, published 2024).

Tests used:
[1] = biological target: Small Hepatitis B surface Antigen (S-HBsAg), HBV subtype ayw (Hepatitis B virus, subtype ayw, UniProt P03138 1-226); assay: cell-based or functional assay
[2] = biological target: Small Hepatitis B surface Antigen (S-HBsAg), HBV subtype not stated (Hepatitis B virus); assay: cell-based or functional assay

Chain of Small Hepatitis B surface Antigen (S-HBsAg), HBV subtype ayw (P03138 164-389): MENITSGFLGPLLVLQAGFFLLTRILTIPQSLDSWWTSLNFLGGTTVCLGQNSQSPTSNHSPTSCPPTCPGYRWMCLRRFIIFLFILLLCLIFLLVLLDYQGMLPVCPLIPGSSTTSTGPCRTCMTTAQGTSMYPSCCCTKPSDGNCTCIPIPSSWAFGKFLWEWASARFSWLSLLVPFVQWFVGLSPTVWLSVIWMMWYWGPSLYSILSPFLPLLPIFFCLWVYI

B1: bivalent, soluble H015 (antibody, V domains shown)
VH: QVQLVESGGGVAQPGRSLRLSCAASGFSFSRHGMHWVRQAPGKGLEWVAGIWFDGTNDYYTDSVKGRFTISRDNSRSTLYLDINSLRAEDTAVYYCAREDPHLLIATLDLWGLGTLVTVSS
VL: DIQVTQSPSSLSAFVGDRVTITCRASQGLTSFINWYQQKPGRAPKLLISSASSLQRGVPSRFTASGSGTHFTLTISSLQPEDFATYYCQQSYGTPALAFGGGTKVDIK
IC50, in vitro HBV neutralization assay, HepG2-NTCP cells, ayw subtype [1]: 0.0836 nM
IC50, in vitro HDV neutralization in primary human hepatocytes (HDV RNA) [2]: 0.113 nM
